Measured values reported in patent publication US20140120109A1 (Regeneron, published 2014).

T1: Fhm, hTL1A(Q167R), soluble, CHO-expressed, residues 72-251 of SEQ ID NO:246 (human, UniProt O95150 72-251)
T1 construct: also called Fhm (CHO); FHM (CHO)
T1 chain: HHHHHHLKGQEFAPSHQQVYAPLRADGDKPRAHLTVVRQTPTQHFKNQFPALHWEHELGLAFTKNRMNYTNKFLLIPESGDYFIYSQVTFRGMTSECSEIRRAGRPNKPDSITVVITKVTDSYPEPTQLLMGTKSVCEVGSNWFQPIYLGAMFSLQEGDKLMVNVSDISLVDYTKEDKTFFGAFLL

T2: cynomolgus monkey TL1A, soluble, E. coli-expressed, residues 72-251 of SEQ ID NO:248 (cynomolgus monkey (Macaca fascicularis), UniProt O95150 72-251 (human entry))
T2 construct: with or without N-terminal Met; also called MfTL1A (E. Coli)
T2 chain: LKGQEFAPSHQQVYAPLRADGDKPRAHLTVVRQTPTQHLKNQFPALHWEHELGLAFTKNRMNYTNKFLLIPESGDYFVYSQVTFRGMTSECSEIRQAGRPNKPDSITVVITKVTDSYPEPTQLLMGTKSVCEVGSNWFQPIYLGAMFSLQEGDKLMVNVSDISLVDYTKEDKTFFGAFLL

T3: Fhm, hTL1A(Q167R), soluble, E. coli-expressed, residues 72-251 of SEQ ID NO:246 (human, UniProt O95150 72-251)
T3 construct: with or without N-terminal Met
T3 chain: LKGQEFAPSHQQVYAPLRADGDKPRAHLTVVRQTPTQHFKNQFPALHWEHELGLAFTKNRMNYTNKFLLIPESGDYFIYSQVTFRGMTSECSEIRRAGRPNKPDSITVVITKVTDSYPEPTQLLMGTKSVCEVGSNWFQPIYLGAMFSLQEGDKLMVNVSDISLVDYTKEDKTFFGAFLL

T4: cynomolgus monkey TL1A, soluble, CHO-expressed, residues 72-251 of SEQ ID NO:248 with N-terminal His6-tag (cynomolgus monkey (Macaca fascicularis), UniProt O95150 72-251 (human entry))
T4 construct: also called MfTL1A; MfTL1A (CHO)
T4 chain: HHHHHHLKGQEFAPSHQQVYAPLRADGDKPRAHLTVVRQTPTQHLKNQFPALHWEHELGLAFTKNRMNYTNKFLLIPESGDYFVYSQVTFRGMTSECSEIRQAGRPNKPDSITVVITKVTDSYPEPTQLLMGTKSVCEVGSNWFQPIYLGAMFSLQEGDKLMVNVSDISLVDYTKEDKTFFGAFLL

T5: human TL1A, soluble, CHO-expressed, residues 72-251 of SEQ ID NO:244 with N-terminal His6-tag (human, UniProt O95150 72-251)
T5 construct: also called hTL1A; hTL1A (CHO)
T5 sequence: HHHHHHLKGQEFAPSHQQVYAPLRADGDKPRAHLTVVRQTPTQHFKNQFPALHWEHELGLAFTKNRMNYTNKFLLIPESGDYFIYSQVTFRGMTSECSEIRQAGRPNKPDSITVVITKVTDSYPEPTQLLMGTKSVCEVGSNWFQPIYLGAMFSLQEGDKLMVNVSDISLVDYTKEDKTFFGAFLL

T6: rat TL1A, soluble, CHO-expressed, residues 76-252 of SEQ ID NO:258 with N-terminal His6-tag (rat, UniProt Q8K3Y7 76-252)
T6 construct: also called rTL1A; rTL1A (CHO)
T6 sequence: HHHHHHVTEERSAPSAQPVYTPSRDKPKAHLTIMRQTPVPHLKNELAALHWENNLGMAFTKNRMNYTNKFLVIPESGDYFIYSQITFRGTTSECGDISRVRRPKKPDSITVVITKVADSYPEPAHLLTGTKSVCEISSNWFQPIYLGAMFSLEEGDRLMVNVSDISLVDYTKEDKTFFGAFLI


Experiments:
[1] = biological target: T1, Fhm, hTL1A(Q167R), soluble, …; experiment: ELISA, blocks FHM (10 pM) binding hDcR3-Fc
Procedure: The ability of antibodies to block human TL1A binding to its cognate receptors, the DR3 and DcR3 receptors, was measured using a competition sandwich ELISA. In addition, blocking of a human TL1A variant FHM (human TL1A Q167R) and the cynomolgus monkey (Macaca fascicularis) TL1A (MfTL1A) protein binding to the human DR3 or DcR3 receptors was measured in the same manner. Constant amounts of biotinylated human TL1A or FHM (both expressed with a 6-His tag in CHO cells) or biotinylated MfTL1A (expressed in CHO cells) were separately titrated with varying amounts of antibodies. The antibody-protein complexes were incubated in solution (1 hr, 25° C.) and then transferred to microtiter plates coated with human DR3 (hDR3) or human DcR3 (hDcR3) expressed as human IgG1 Fc fusion proteins. After one hour at 25° C. the wells were washed, and bound human or monkey TL1A was detected with streptavidin conjugated with horseradish peroxidase (HRP). Wells were developed with a TMB solution to produce a colorimetric reaction and quenched with aqueous sulfuric acid before reading absorbance at 450 nm on a Perkin-Elmer Victor X5 plate reader. A sigmoidal dose-response curve was fit to the data using the Prism™ data analysis package. […] Both fully human anti-hTL1A mAbs and comparator antibodies, i.e., control mAb1 (an anti-hTL1A antibody with heavy and light chain variable domains having the amino acid sequences corresponding to SEQ ID NOS:21 and 27, respectively, of US 2009/0280116) and control mAb3 (an anti-hTL1A antibody with heavy and light chain variable domains having the amino acid sequences corresponding to SEQ ID NOS:57 and 48, respectively, of US 2009/0280116), were included in the study. NB: No binding under the conditions tested; NT: Not tested. Concentrations of biotinylated soluble ligands: (1) 150 pM; (2) 500 pM; (3) 10 pM; and (4) 50 pM.

[2] = biological target: T2, cynomolgus monkey TL1A, soluble, E. …; experiment: SPR 37C, mAb captured
Method in brief: (§1)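 Biacore T100 SPR with captured mAb and soluble TL1A/Fhm analyte; ka and kd fitted to a 1:1 model assuming monomeric TL1A. KD = kd/ka; t1/2 (min) = ln2/(60·kd).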

[3] = biological target: T3, Fhm, hTL1A(Q167R), soluble, E. …; experiment: SPR 37C, mAb captured
Method in brief: as §1

[4] = biological target: T4, cynomolgus monkey TL1A, soluble, …; experiment: SPR 37C, mAb captured
Method in brief: as §1

[5] = biological target: T5, human TL1A, soluble, CHO-expressed, …; experiment: SPR 37C, mAb captured
Method in brief: as §1

[6] = biological target: T6, rat TL1A, soluble, CHO-expressed, …; experiment: SPR 37C, mAb captured
Method in brief: as §1

| Binder | IC50 [1] | Kd [2] | t1/2 [2] | Kd [3] | t1/2 [3] | Kd [4] | t1/2 [4] | Kd [5] | t1/2 [5] | Kd [6] | t1/2 [6] |
| --- | --- | --- | --- | --- | --- | --- | --- | --- | --- | --- | --- |
| H4H1750P (antibody, human IgG4 S228P, V domains shown) VH: QVQLVESGGGVVQPGRSLRLSCVASGFTFSNYGMHWVRQAPGKGLEWVAVISYDGNNDLYSDSVKGRFTISRDNAKNALSLQMTSLRAEDTAVYYCARDSTMTPYYYHGIDVWGQGTTVTVSA VL: DIQMTQSPSSLSASVGDRVTITCRASQDIRNDLGWYQQKPGKAPKRLIYAASSLQSGVPSRFSGSGSGTDFTLTISSLQPEDFATYYCLQHNSYPPTFGQGTKVEIK | 0.626 nM | 456 nM | 1 min | 0.244 nM | 335 min |  |  |  |  |  |  |
| H4H1805N (antibody, human IgG4 S228P, V domains shown, human IgG4(S108P) form of H2M1805N) VH: QVQLQQWGAGLLKPSETLSLTCAVYGGSFTGFYWSWIRQPPGKGLEWIGEINHRGNTNYNPSLKSRVTMSVDTSKNQFSLNMISVTAADTAMYFCASPFYDFWSGSDYWGQGTLVTVSS VL: DIMLTQTPLTSPVTLGQPASISCKSSQSLVHSDGNTYLSWLQQRPGQPPRLLFYKISNRFSGVPDRFSGSGAGTDFTLKISRVEAEDVGVYYCMQATQFPLTFGGGTKVEIK |  |  |  |  |  | 0.352 nM | 68 min | 0.299 nM | 80 min |  |  |
| H4H1719P (antibody, human IgG4 S228P, V domains shown) VH: EVQLVESGGGLVQPGRSLRLSCVASGFTFQDYAMHWVRQAPGKGLEWVSGINWISDDMGYADSVMGRFTISRDNAKNSLYLQMDSLRAEDTALYYCAKDKGLRFLDYVMDVWGQGTTVTVSA VL: DIVMTQSPLSLPVTPGEPASISCRSTQSLLHRNGHNYLHWYLHKPGQSPQLLIHLGSNRASGVPDRFSGSGSGTDFTLKISRVEAEDVGVYYCMQALQTPYTFGQGTKLEIK | 0.045 nM | 0.289 nM | 40 min | 0.174 nM | 42 min | 0.00201 nM | 5780 min | 0.00761 nM | 1910 min | 0.078 nM | 86 min |
| H4H1738P (antibody, human IgG4 S228P, V domains shown) VH: EVQLVESGGALVKPGGSLRLSCAVSGFTFINDWMNWVRQAPGKGLEWVGRIKSTTDGGTTDDAAPVKGRFTISRDDSKNTLYLQMNSLKTEDTAVYYCTRDRNRQRNYFYDGMDVWGQGTTVTVSA VL: DIVMTQSPVSLPVTPGEPASISCRSSQRLLHNNGNNYLDWYLQKPGQSPQLLIYLGSNRASGVPDRFSGSGSGTDFTLKVSRVEAEDVGVYYCMQALQTPYTFGQGTKLEIK | 0.15 nM | 4.2 nM | 4 min | 3.1 nM | 4 min | 0.465 nM | 60 min | 0.571 nM | 51 min |  |  |
| H4H1681N (antibody, human IgG4 S228P, V domains shown) VH: EVQLLESGGGLVQPGKSLRLSCAVSGFTFSTYGMNWVRQAPGKGLEWVSSISGTGRTTYHADSVQGRFTVSRDNSKNILYLQMNSLRADDTAVYFCTKERGDYYYGVFDYWGQGTLVTVSS VL: DIQMTQSPSTLSASVGDRVTITCRASQTISSWLAWYQQTPEKAPKLLIYAASNLQSGVPSRFSGSGSGTEFTLTISSLQPDDFATYYCQQYHRSWTFGQGTKVEIT |  |  |  |  |  | 0.226 nM | 32 min | 0.254 nM | 31 min |  |  |
| H4H1752P (antibody, human IgG4 S228P, V domains shown) VH: EVQLVESGGGLVQPGGSLRLSCSASGFTFSKYVMTWVRQAPGKGLEWVSAIGPTGRTTEYADSVQGRFTISRDNSMNTVFLHLNSLTAEDTAEYYCAKMFDWNYDVYFDSWGQGTLVTVSS VL: DIQMTQSPSILSASVGDRVTITCRTSQSISNWLAWYQQKPGKAPNLLIYKASSLESGVPSRFSGSGSGTEFTLTISSLQPDDFATYYCQQYYRYWTFGQGTKVEIK |  | 1.32 nM | 29 min |  |  | 0.223 nM | 91 min | 0.225 nM | 96 min |  |  |
| H4H1704N (antibody, human IgG4 S228P, V domains shown, human IgG4(S108P) form of H2M1704N) VH: EVQLVESGGGLVQPGGSLRLSCAVSGFTFSSYWMSWVRQAPGKGLEWVANIKEDGSEKNYVDSVKGRFTLSSDNAKNSLYLQMNSLRAEDTAVYYCAREDYDSYYKYGMDVWGQGTAVIVSS VL: not shown | 0.17 nM |  |  |  |  |  |  |  |  | 0.046 nM | 133 min |
| H4H1742P (antibody, human IgG4 S228P, V domains shown) VH: EVQLVESGGGLVQPGGSLRLSCAASGFTFSNYVMNWVRQAPGKGLEWVSVISGSGGSTHYADSVKGRFTISRDNSKDALYLQMNSLRAEDTAVYYCAKGPLEAYYYYNGMDVWGQGTTVTVSS VL: DIQLTQSPSFLSASVGDRVTITCWASQAISSYLAWYQHKPGRAPKLLIYSTSTLQSGVPSRFSGSGSGTEFTLTISSLQPEDFATYYCQQLNSYPTFGQGTKLEIK | 0.231 nM | 0.945 nM | 35 min | 0.696 nM | 45 min |  |  |  |  | 0.653 nM | 27 min |
| H4H1817N (antibody, human IgG4 S228P, V domains shown, human IgG4(S108P) form of H2M1817N) VH: QVQLQQWGAGLLKPSETLSLTCAVSGGSFSDYFWTWIRQPPGKGLEWIGEISHSGRTNYNPSLKSRVTISVDTSMSQFSLKMTSVTAADSAVYYCARDYPNWVFDYWGQGTLVTVSS VL: EIELTQSPGTLSLSPGEGATLSCRASQSVFNSYLAWYQQKPGQAPRLLIYGASRRATGIPDRFSGSGSGTDFTLTISRLEPGDFAVYFCQQYGNSPLTFGGGTKVEIK |  |  |  |  |  | 0.0256 nM | 1150 min | 0.0278 nM | 1100 min | 1.6 nM | 26 min |
| H4H1804N (antibody, human IgG4 S228P, V domains shown, human IgG4(S108P) form of H2M1804N) VH: QVQLHQWGAGLLKPSETLSLTCAVSGVSFSDYHWAWIRQSPGKGLEWIGDINHRGRTNYNPSLKSRVTISLDTSGNPFSLKLTSVTAADTAVYYCARDFPNWVFDSWGQGILVTVSS VL: EIVLSQSPGTLSLSPGERATLSCRASQSVSSSFLAWYQQYPGQAPRLLIYGASRRATGIPDRFRGSGSGTDFTLTISRLEPEDFAVYYCQQYGSSPLTFGGGTKVENK |  |  |  |  |  | 0.078 nM | 167 min | 0.0458 nM | 286 min | 0.127 nM | 88 min |
